Article PMC7804308

Experiments:
[1] = molecular target: BG505 SOSIP.664 gp140 trimer (HIV); experiment: SPR
[2] = molecular target: F84T Malay BanLec (Musa acuminata ssp. malaccensis); experiment: crystal structure; WT and F84T Malay BanLec each at 5 mg/mL in 10 mM HEPES pH 7.5, 150 mM NaCl; crystals grown at 20 °C from ammonium sulfate; dimers in the asymmetric unit
[3] = molecular target: WT Malaysian banana lectin (Malay BanLec) (Musa acuminata ssp. malaccensis); experiment: as above

Substance | Kd [1] | koff [1] | kon [1] | stoichiometry N [2] | stoichiometry N [3]
griffithsin (GRFT) (from UniProt P84801 1-121) (natural protein) | 0.137 nM | 0.00074 s⁻¹ | 5.56e+06 M⁻¹ s⁻¹ | – | –
F84T Malay BanLec (natural protein) | 0.368 nM | 0.000266 s⁻¹ | 720000 M⁻¹ s⁻¹ | 2 | –
WT Malaysian banana lectin (Malay BanLec) (natural protein) | 0.122 nM | 0.00014 s⁻¹ | 1.33e+06 M⁻¹ s⁻¹ | – | 2
